B1: CPEB3 Ribozyme (parent)
chain: GGGGGCCACAGCAGAAGCGUUCACGUCGCGGCCCCUGUCAGAUUCUGGUGAAUCUGCGAAUUCUGCUGU

Variants of B1 are the subject of this series. Briefly: self-cleavage, relative activity (ratio to wild type); higher = more cleavage; co-transcriptional.
GGGGGCCACACCAGAAGCGUUUACGUCGCGGCCCCUGUCAGAUUCUGGUGAAUCUGCGAAUUCUGCUGU [G11C C22U]: the self-cleavage stood at 0.143.

Turning to GGGGGCCACACCAGAAGCGUUAACGUCGCGGCCCCUGUCAGAUUCUGGUGAAUCUGCGAAUUCUGCUGU [G11C C22A], the self-cleavage stood at 0.177. The result for GGGGGCCACACCAGAAGCGUUCACGUCGCGGCCCCUGUCAGAUUCUGGUGAAUCUGCGAAUUCUGCUGU [G11C] reads 0.872; that for GGGGGCCACACCAGAAGCGUUCACGUCGCGGCCCCUGUCAGAUUCUGGUGAAUCUGCGAUUUCUGCUGU [G11C A60U], 0.243. On to GGGGGCCACACCAGAAGCGUUCACGUCGCGGCCCCUGUCAGAUUCUGGUGAAUCUGCGAGUUCUGCUGU [G11C A60G], for which the self-cleavage stood at 0.434. For GGGGGCCACAACAGAAGCGUUCACGUCGCGGCCCCUGUCAGAUUCUGGUGAAUCUGCGAAUACUGCUGU [G11A U62A] the value was 0.537; for GGGGGCCACAACAGAAGCGUUCACGUCGCGGCCCCUGUCAGAUUCUGGUGAAUCUGCGAAUCCUGCUGU [G11A U62C], 0.391.

Turning to GGGGGCCACAACAGAAGCGUUCACGUCGCGGCCCCUGUCAGAUUCUGGUGAAUCUGCGAAUUCAGCUGU [G11A U64A], the self-cleavage came out at 0.655. In the case of GGGGGCCACAACAGAAGCGUUCACGUCGCGGCCCCUGUCAGAUUCUGGUGAAUCUGCGAAUUCCGCUGU [G11A U64C], the self-cleavage amounted to 0.513.

With GGGGGCCACAACAGAAGCGUUCACGUCGCGGCCCCUGUCAGAUUCUGGUGAAUCUGCGAAUUCGGCUGU [G11A U64G], the self-cleavage worked out at 0.661. Consider GGGGGCCACAACAGAAGCGUUCACGUCGCGGCCCCUGUCAGAUUCUGGUGAAUCUGCGAAUUCUGCGGU [G11A U67G], for which the self-cleavage turned out to be 0.98.

For GGGGGCCACAACAGAAGCGUUCACGUCGCGGCCCCUGUCAGAUUCUGGUGAAUCUGCGAAUUCUGCCGU [G11A U67C], the self-cleavage stood at 0.996. For the variant GGGGGCCACACCAGAAGCGUUCACGUCGCGGCCCCUGUCAGGUUCUGGUGAAUCUGCGAAUUCUGCUGU [G11C A42G], the self-cleavage is 0.51. For the variant GGGGGCCACACCAGAAGCGUUCACGUCGCGGCCCCUGUCAGUUUCUGGUGAAUCUGCGAAUUCUGCUGU [G11C A42U], the self-cleavage was found to be 0.41. As to GGGGGCCACACCAGAAGCGUUCACGUCGCGGCCCCUGUCAGAUUCUGGUGGAUCUGCGAAUUCUGCUGU [G11C A51G], the self-cleavage came to 0.73.

In the case of GGGGGCCACACCAGAAGCGUUCACGUCGCGGCCCCUGUCAGAUUCUGGUGUAUCUGCGAAUUCUGCUGU [G11C A51U], the self-cleavage was found to be 0.621. As for GGGGGCCACACCAGAAGCGUUCACGUCGCGGCCCCUGUCAGAUUCUGGUGCAUCUGCGAAUUCUGCUGU [G11C A51C], the self-cleavage worked out at 0.624. In the case of GGGGGCCACAACAGAAGCGUUCACGUCGCGGCCCCUGUCAGAUUCUGGUGAAUCUGCGAAGUCUGCUGU [G11A U61G], the self-cleavage amounted to 0.392. On to GGGGGCCACAACAGAAGCGUUCACGUCGCGGCCCCUGUCAGAUUCUGGUGAAUCUGCGAAAUCUGCUGU [G11A U61A], for which the self-cleavage was 0.452.

As to GGGGGCCACAACAGAAGCGUUCACGUCGCGGCCCCUGUCAGAUUCUGGUGAAUCUGCGAACUCUGCUGU [G11A U61C], the self-cleavage came out at 0.268.

As for GGGGGCCACAACAGAAGCGUUCACGUCGCGGCCCCUGUCAGAUUCUGGUGAAUCAGCGAAUUCUGCUGU [G11A U55A], the self-cleavage was found to be 0.348.

Take GGGGGCCACAACAGAAGCGUUCACGUCGCGGCCCCUGUCAGAUUCUGGUGAAUCGGCGAAUUCUGCUGU [G11A U55G]: the self-cleavage amounted to 0.317. Consider GGGGGCCACACCAGAAGCGUUCACGUCGCGGCCGCUGUCAGAUUCUGGUGAAUCUGCGAAUUCUGCUGU [G11C C34G], for which the self-cleavage was determined as 0.578.

As for GGGGGCCACACCAGAAGCGUUCACGUCGCGGCCACUGUCAGAUUCUGGUGAAUCUGCGAAUUCUGCUGU [G11C C34A], the self-cleavage came to 0.615. Turning to GGGGGCCACACCAGAGGCGUUCACGUCGCGGCCCCUGUCAGAUUCUGGUGAAUCUGCGAAUUCUGCUGU [G11C A16G], the self-cleavage turned out to be 0.471. As for GGGGGCCACACCAGCAGCGUUCACGUCGCGGCCCCUGUCAGAUUCUGGUGAAUCUGCGAAUUCUGCUGU [G11C A15C], the self-cleavage was 0.497. For the variant GGGGGCCACACCAGUAGCGUUCACGUCGCGGCCCCUGUCAGAUUCUGGUGAAUCUGCGAAUUCUGCUGU [G11C A15U], the self-cleavage was determined as 0.188.

In the case of GGGGGCCACACCAGAAGCGUUCACGUCGCGGACCCUGUCAGAUUCUGGUGAAUCUGCGAAUUCUGCUGU [G11C C32A], the self-cleavage turned out to be 0.601.

As to GGGGGCCACACCAGAAGCGUUCACGUCGCGGUCCCUGUCAGAUUCUGGUGAAUCUGCGAAUUCUGCUGU [G11C C32U], the self-cleavage stood at 0.82. Turning to GGGGGCCACACCAGAAGCGUUCACGUCGCGGGCCCUGUCAGAUUCUGGUGAAUCUGCGAAUUCUGCUGU [G11C C32G], the self-cleavage turned out to be 0.17. As to GGGGGCCACACCAGAAGCGUUCACGUCGCGGCCCCUGUCAGAUUCUGGUGAAUCUGCGCAUUCUGCUGU [G11C A59C], the self-cleavage amounted to 0.324. For GGGGGCCACACCAGAAGCGUUCACGUCGCGGCCCCUGUCAGAUUCUGGUGAAUCUGCGUAUUCUGCUGU [G11C A59U], the self-cleavage turned out to be 0.36. The result for GGGGGCCACACCAGAAGCGUUCACGUCGCGGCCCCUGUCUGAUUCUGGUGAAUCUGCGAAUUCUGCUGU [G11C A40U] reads 0.26; that for GGGGGCCACACCAGAAGCGUUCACGUCGCGGCCCCUGUCCGAUUCUGGUGAAUCUGCGAAUUCUGCUGU [G11C A40C], 0.179; that for GGGGGCCACACCAGAAGCGUUCACGUCGCGGCCCCUGUCGGAUUCUGGUGAAUCUGCGAAUUCUGCUGU [G11C A40G], 0.643.

As to GGGGGCCACAACAGAAGCGUACACGUCGCGGCCCCUGUCAGAUUCUGGUGAAUCUGCGAAUUCUGCUGU [G11A U21A], the self-cleavage was 0.875. On to GGGGGCCACAACAGAAGCGUCCACGUCGCGGCCCCUGUCAGAUUCUGGUGAAUCUGCGAAUUCUGCUGU [G11A U21C], for which the self-cleavage was 0.633. GGGGGCCACAACAGAAGCGUUCACGUCGCGGCCCCCGUCAGAUUCUGGUGAAUCUGCGAAUUCUGCUGU [G11A U36C]: the self-cleavage was 0.727. For GGGGGCCACAACAGAAGCGUUCACGUCGCGGCCCCAGUCAGAUUCUGGUGAAUCUGCGAAUUCUGCUGU [G11A U36A] the value was 0.211.
